Experimental data reported in publication PMC4529233, “In Silico Generation of Peptides by Replica Exchange Monte Carlo: Docking-Based Optimization of Maltose-Binding-Protein Ligands” (PLoS ONE, 2015).
Like-named read-outs stand apart in the source and are kept apart here. No end group written: not given here.

Legend:
MBP [1] = biological target: T1, MBP (Escherichia coli, UniProt P0AEX9); assay: Surface Plasmon Resonance, immobilized MBP, peptides as analytes; type: binding; settings: for SPR signal variations in the explored concentration range: dose response assay
T1 construct: made in house; host or cells: E. coli BL21(DE3)
Protocol: The interactions between the protein and computationally optimized peptides were measured using the BIAcore 3000 (GE Healthcare Milano, Italy). […] Residual reactive groups were deactivated by treatment with 1 M ethanolamine hydrochloride, pH 8.5. The reference channel was activated with EDC/NHS and deactivated with ethanolamine. The binding assays were carried out at 20 μL /min at 25°C, with 4.5 min contact-time. Peptides were diluted in the HBS running buffer (10 mM Hepes, 150 mM NaCl, 3 mM EDTA, pH 7.4). Analyte injections were performed at the indicated concentrations. The sensor surface was regenerated by using 1–3 washes of 10mM NaOH for 1 minute. The association phase (kon) was followed for 250s, whereas the dissociation phase (koff) was followed for 300 s. The instrument BIAevaluation analysis package (version 4.1, GE Healthcare, Milano, Italy) was used to subtract the signal of the reference channel. Conversely, an affinity steady state model was applied to fit the RUmax data versus peptides concentrations and fitting was performed with GraphPad Prism v4.00 using the one-site binding equation [53, 54].

OPPA = settings: KAK+OPPA; cited from earlier work
MBP [2] = biological target: T1, MBP; settings: cited from earlier work
[3] = immobilized MBP on CM5 chip, 25°C, HBS pH 7.4

GLPKPGGN [MBP-5, computationally designed octapeptide]
KD (SPR determined) (MBP [1]; [3]): CBE

KAK
experimentally determined binding energy (OPPA): -9.8 kcal/mol

PQYPPHDN [MBP-4, computationally designed octapeptide]
KD (SPR determined) (MBP [1]; [3]): CBE

WGTNGGTR [MBP-2, computationally designed octapeptide]
KD (SPR determined) (MBP [1]; [3]): CBE

WHPRPVWE-NH2 [MBP-8]
Kd (MBP [1]; immobilized MBP on CM5 chip, 25°C, HBS pH 7.4, read-out: KD (SPR determined)): 200 ± 5 µM

WSPNFWWR [MBP-7, computationally designed octapeptide]
KD (SPR determined) (MBP [1]; [3]): CBE

YGDGYFRF [MBP-10, peptide along the minimization path of MBP-9]
SPR signal variations in the explored concentration range (MBP [1]): did not give valuable signal variations | KD (SPR determined) (MBP [1]; [3]): No binding

YHDGYFRF [MBP-11, peptide along the minimization path of MBP-9]
SPR signal variations in the explored concentration range (MBP [1]): did not give valuable signal variations | KD (SPR determined) (MBP [1]; [3]): No binding

maltotriose
experimental binding energy (MBP [2]; compared with the closed configuration score): -9.3 kcal/mol | experimental binding energy (MBP [2]; compared with the open configuration score): -8.4 kcal/mol
